Literature values, collected in PMC6811625.
pKd: −log10 of the molar value.

Target: Im7 (Escherichia coli) (UniProt Q03708)
Sequence (Q03708 whole entry): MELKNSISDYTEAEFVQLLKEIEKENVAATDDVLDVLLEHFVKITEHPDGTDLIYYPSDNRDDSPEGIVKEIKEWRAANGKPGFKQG

Sequence of Spy (P77754 24-161): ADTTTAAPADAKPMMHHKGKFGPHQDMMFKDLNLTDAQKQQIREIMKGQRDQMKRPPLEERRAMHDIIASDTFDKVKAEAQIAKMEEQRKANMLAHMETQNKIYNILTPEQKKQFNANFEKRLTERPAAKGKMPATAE

For Spy (from UniProt P77754), the pKd is given as 4.52.
